Columns and labels:
Test in all cases: ELISA, coated CR6261, P. pastoris medium
Conditions in all cases: remark: other sources report otherwise
[1] = target: 113E7 (influenza A H1N1 A/Brisbane/59/2007)
[2] = target: 13185 (influenza A H1N1 A/Brisbane/59/2007)
[3] = target: 145E7 (influenza A H1N1 A/Brisbane/59/2007)
[4] = target: 145E8 (influenza A H1N1 A/Brisbane/59/2007)
[5] = target: 174G3 (influenza A H1N1 A/Brisbane/59/2007)
[6] = target: 182G8 (influenza A H1N1 A/Brisbane/59/2007)
[7] = target: 187C6 (influenza A H1N1 A/Brisbane/59/2007)
[8] = target: 192C4 (influenza A H1N1 A/Brisbane/59/2007)
[9] = target: 213C11 (influenza A H1N1 A/Brisbane/59/2007)
[10] = target: 214C4 (influenza A H1N1 A/Brisbane/59/2007)
[11] = target: 216E5 (influenza A H1N1 A/Brisbane/59/2007)
[12] = target: 218G11 (influenza A H1N1 A/Brisbane/59/2007)
[13] = target: 244B8 (influenza A H1N1 A/Brisbane/59/2007)
[14] = target: 251C8 (influenza A H1N1 A/Brisbane/59/2007)
[15] = target: 301F11 (influenza A H1N1 A/Brisbane/59/2007)

B1: CR6261 (antibody, V domains shown)
VH: EVQLVESGAEVKKPGSSVKVSCKASGGPFRSYAISWVRQAPGQGPEWMGGIIPIFGTTKYAPKFQGRVTITADDFAGTVYMELSSLRSEDTAMYYCAKHMGYQVRETMDVWGKGTTVTVSS
VL: QSVLTQPPSVSAAPGQKVTISCSGSSSNIGNDYVSWYQQLPGTAPKLLIYDNNKRPSGIPDRFSGSKSGTSATLGITGLQTGDEANYYCATWDRRPTAYVVFGGGTKLTVLG
CR6261 binding signal [1]: 966000 | CR6261 binding signal [2]: 844000 | CR6261 binding signal [3]: 132000 | CR6261 binding signal [4]: 212000 | CR6261 binding signal [5]: 491000 | CR6261 binding signal [6]: 400000 | CR6261 binding signal [7]: 345000 | CR6261 binding signal [8]: 343000 | CR6261 binding signal [9]: 667000 | CR6261 binding signal [10]: 302000 | CR6261 binding signal [11]: 335000 | CR6261 binding signal [12]: 959000 | CR6261 binding signal [13]: 274000 | CR6261 binding signal [14]: 270000 | CR6261 binding signal [15]: 117000

— patent US20170189519A1
